Measurements taken from the supplement of paper PMC9170038.

System: MS2 coat protein
Test: apparent KD of MS2 coat protein; designed switch direction (-1 OFF switch, 1 ON switch): -1; higher = weaker reporter binding
Summary of the method: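 Designed RNA switches with common flanks were transcribed on Illumina chips by stalled E. coli RNA polymerase and titrated with SNAP-549-labelled MS2 coat protein, from 0.7 or 1.5 nM doubling to 3 µM, in Tris-HCl pH 7.5 buffer with KCl, MgCl2, BSA, DTT, tRNA and Tween-20. Steps lasted 0.8–1.5 h (lowest) to 10–20 min (highest). Titrations ran without input, with 200 uM small-molecule ligand, or with an oligonucleotide input. Normalised cluster fluorescence was curve-fitted, and apparent KD is the per-design median over clusters.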

[1] = Eterna round: R95, input ligand: FMN 200 uM
[2] = Eterna round: R95, input ligand: microRNA oligo, concentration not stated
[3] = Eterna round: R95, input ligand: none
[4] = input ligand: microRNA oligo, concentration not stated

Sequence | apparent KD of MS2 coat protein [2] [nM] | apparent KD of MS2 coat protein (input ligand: FMN 200 uM) [nM] | apparent KD of MS2 coat protein (input ligand: none) [nM] | further results
AGAUGGCGAGGAUAUACAUGAGGAUCACCCAUGUGAGAUAAUAAAGUGAGGAAGAAAAGUAGAAGGCGCUGUCA [Mat - Exclusion 3 - Mod of Salish D13] (puzzle: Exclusion 3) | 53.7 | – | – | apparent KD of MS2 coat protein [1]: 221 nM; apparent KD of MS2 coat protein [3]: 56.8 nM
AAAUUAGCAAGUAGGUCCGACAUGAGGAUCACCCAUGUAAUCUGAAAUUACGCUGCAUGAAAGUGCGCUCGUCUUAG [Sensor-V1 #10] (Eterna round: R97, puzzle: Sensor, turn-off variant 1) | – | 111 | 168 | –
AUUUAGAGAGGAUAUAUAUUGUGAAACAUGAGGAUCACCCAUGUAAUAAUAUGGAUGUAAAUAGAAGGCUCAUUUA [Mat - Exclusion 5 - JL mod - D9] (puzzle: Exclusion 5) | 41.3 | – | – | –
CUCAAACAUGAGGAUCACCCAUGUGAGGAUAUGAUGCGAUCGUCGAAAGACGAUAGCAUCAGAAGGUACAAAUG [Fiskers Ex 1 - 23] (puzzle: Exclusion 1) | 37.9 | – | – | apparent KD of MS2 coat protein [1]: 37.7 nM; apparent KD of MS2 coat protein [3]: 54.2 nM
ACUUAUUGAGGAUAUACAGAUUAUUACAUGAGGAUCACCCAUGUUCUUCAAUGUAUAUAUGUAGAAGGCAGAAGAA [JL-ex5-4.25 Malcolm mod] (Eterna round: R97, puzzle: Exclusion 5) | – | 179 | 56.7 | –
GGUGCGUUUGUGAGGAUAUGCUGGUCCUUGGUUCGGCAGAAGGCACAUGAGGAUCACCCAUGUGGUGUCGUCCC [salish99_Bmod_Ex4_046] (puzzle: Brourd's mod of Exclusion 4) | 32 | – | – | –
AAAAGCGUCACAGGAUAUUCAGGCGACGCCAAAGAAGAAGGGUGAGGCACAAACAUGAGGAUCACCCAUGUGGUCCUCUCCCGA [Vebiquti] (Eterna round: R96, puzzle: Exclusion NG 1) | – | 19.2 | 15.6 | apparent KD of MS2 coat protein [4]: 11 nM
AUUAAGCAGCAGGAUAUAAGUAUCUGAUGGUGGUUAGAAGGGCUGACAUGAGGAUCACCCAUGUGCUCUUCGUG [Tieruseres] (puzzle: Exclusion 6) | 10.1 | – | – | apparent KD of MS2 coat protein [1]: 16.1 nM; apparent KD of MS2 coat protein [3]: 14.1 nM
UACCGUGGUUAGGAUAUACCGUGACACCGCUGAGUAGAAGGAACCACAUGAGGAUCACCCAUGUAAUAUGAAGG [Eternabot (L2) Solution 94] (Eterna round: R97, puzzle: Exclusion 6) | – | 159 | 51.9 | –
CCGCUGCAAGGAUAUACUUGCGGUGGUGCUCGAGAUCUUUUACUUGAGGAUCACCCAAGUAGAAGGUGCAAAAC [jl-ex2.4.53 ViennaUCT mod] (Eterna round: R97, puzzle: Exclusion 2) | – | 26.2 | 17.9 | –
UAGCAUUGCCUUUGGUAGUGCAUUACAUGAGGAUCACCCAUGUAGGAUAUGGUAGGCUUUGCUUACCAGAAGGACAUGAUAAUU [JL ENG3 1.05] (Eterna round: R96, puzzle: Exclusion NG 3) | – | 135 | 48.7 | apparent KD of MS2 coat protein [4]: 38.9 nM
CAGUACUGAGGAUAUACAUGAGGAUCACCCAUGUCCUUCAGCUAGGAAACUAGCGAAAGUAGAAGGCAGUACUG [Eli x3 4.001] (Eterna round: R97, puzzle: Exclusion 3) | – | 366 | 13.4 | –
AAUCCACAUGAGGAUCACCCAUGUCAGGAUAUCGCGCGCGCGUUUUCGGUCUCGCGCGCGAGAAGGGACGGCUG (puzzle: Exclusion 1) | 22 | – | – | –
UCUAUAGGGCUGCAGGCUUACAUGAGGAUCACCCAUGUAUAGGGUUUUCUACGCGCUCGUCAUCAUACAUUAAUUCG [Eternabot (L1) Solution 31] (Eterna round: R97, puzzle: Sensor, turn-off variant 1) | – | 44 | 53.1 | –
GGCAGACAUGAGGAUCACCCAUGUGAGGAUAUGGUGCGAUCGUCGAUAGACGAUAGCACCAGAAGGCACAUGCC [Mat - Exclusion 1 - Eli Mod - D4] (Eterna round: R97, puzzle: Exclusion 1) | – | 159 | 34.5 | –
AAGAAACAUGAGGAUCACCCAUGUGAGGAUAUGACUAAGAAAAGAAAAGAAAGAAGAUUCAGAAGGCACAAAGG [salish99-ex1_r3_062] (puzzle: Exclusion 1) | 42.3 | – | – | apparent KD of MS2 coat protein [1]: 91.2 nM; apparent KD of MS2 coat protein [3]: 46.1 nM
CUAAAUCAUGUAGGAUAUGCGUGGCAAAGCUAUGCAGAAGGACAUGAGGAUCACCCAUGUCAUUCCGUCUGGAGACAGACGGGA [Mat - Exclusion NG 1 - Mod of JL - D54] (Eterna round: R96, puzzle: Exclusion NG 1) | – | 182 | 25 | apparent KD of MS2 coat protein [4]: 20.7 nM
GGACCGAGUGUGAGGAUAUGCUGGUCCUUGGAUCAGCAGAAGGCACAUGAGGAUCACCCAUGUGGAGACGGUCC [Eli bmx4 4.33] (Eterna round: R97, puzzle: Brourd's mod of Exclusion 4) | – | 1050 | 87.4 | –

Sequence | apparent KD of MS2 coat protein [2] [nM] | apparent KD of MS2 coat protein (input ligand: FMN 200 uM) [nM] | apparent KD of MS2 coat protein (input ligand: none) [nM] | further results
AGUAGAUCUACGCUUGCGUGGAUCUGCAAGGCAGGUGUUACAUGAGGAUCACCCAUGUCCUCAUUUGCUCGUCUUAG [JL turnoff v2 99.07] (puzzle: Sensor v3, turn-off variant 2) | 1100 | – | – | apparent KD of MS2 coat protein [1]: 358 nM; apparent KD of MS2 coat protein [3]: 332 nM
GGAUCGAGAGUGAGGAUAUGCUGGUCCUUGGAUCAGCAGAAGGCACAUGAGGAUCACCCAUGUGAUUUCGAUCC [Mat - Exclusion 4 - Eli Mod - D40] (Eterna round: R97, puzzle: Brourd's mod of Exclusion 4) | – | 34.6 | 18.1 | –
CUUUCGUGAGGAUAUCAGUAGUAAAUAAAUAAAAUUACUACUGAGAAGGCACAUGAGGAUCACCCAUGUUCCUU [salish99_ex3_r3_095] (puzzle: Exclusion 4) | 12.9 | – | – | –
GCGGCGUAUGUAGGAUAUCGGUCAGUUUCUGAUCGAGAAGGACAUGAGGAUCACCCAUGUAAAUUACCGACUUUGUCGGGCCGC [JL ENG1 3.66] (Eterna round: R96, puzzle: Exclusion NG 1) | – | 20.4 | 17.7 | apparent KD of MS2 coat protein [4]: 13.5 nM
UACACUGCAUGAGGAUCAAACAUGAGGAUCACCCAUGUAUAGCAAGCUUUUUGCUCGUCUUAUAAUUAUGUAGUGUA [Electric Eye 12 - Jieux - Sensor, turn-off variant 1] (Eterna round: R97, puzzle: Sensor, turn-off variant 1) | – | 15 | 15.7 | –
AGAGUGUGAGGAUAUAUGGUGCAGAUGAAGGGAUAGAAGGAGUAGAAGGUACAUGAGGAUCACCCAUGUUAGGA [JR_Exclu4_Sub077] (puzzle: Exclusion 4) | 25.5 | – | – | –
GUUAAGGUAGGAUAUACGAUAAUAUAGGGUAGAAUUAUAACACAUGAGGAUCACCCAUGUAGAAGGACCAAUUG [Mat - Exclusion 2 - Mod of my Tesla design - D52] (puzzle: Exclusion 2) | 25.8 | – | – | –
GCUGUGAAUCAGGAUAUGCGGAUAAAGAGUGCCGCAGAAGGGAUAACAUGAGGAUCACCCAUGUUCCUGCAUGA [Eternabot (L2) Solution 99] (Eterna round: R97, puzzle: Exclusion 6) | – | 26.5 | 20.9 | –
AAAUGCAAGCAAAGAUCUUACAUGAGGAUCACCCAUGUGCUCGUCUUAUAAAGUACUAUCACGAAAGUGAUAGUACA [Sensor 3, v1 - 28] (puzzle: Sensor v3, turn-off variant 1) | 90.9 | – | – | apparent KD of MS2 coat protein [1]: 25.9 nM; apparent KD of MS2 coat protein [3]: 18.1 nM
AAAAAGAUAGGAUAUACAAUAAAAUAAAAUAAAAUAAAUACACAUGAGGAUCACCCAUGUAGAAGGAUCGAAAA [Exclusion 2 #1] (puzzle: Exclusion 2) | 25 | – | – | apparent KD of MS2 coat protein [1]: 26.6 nM; apparent KD of MS2 coat protein [3]: 31.2 nM
UAUACACAUGAGGAUCACCCAUGUGAGGAUAUGUUAAUUUUAAUGAAAAUUAAAAUUAACAGAAGGCACAUAUA [JR_Exclusion1_Sub025] (puzzle: Exclusion 1) | 67.2 | – | – | –
UUAUUAUAUGUAGGAUAUGCAUAUUGUUGUUAUGCAGAAGGACAUGAGGAUCACCCAUGUAUAUUAUUGUUAUAUAUUAUAUAU [Title] (Eterna round: R96, puzzle: Exclusion NG 1) | – | – | – | apparent KD of MS2 coat protein [4]: 20.1 nM
AAAUGGGCGUAGGAUAUGAGAUGGUCUAGCAGCUCAGAAGGACGCACAUGAGGAUCACCCAUGUGAUCGGACUA [Celebidi] (puzzle: Exclusion 6) | 29.7 | – | – | –
GUUAAACAUGAGGAUCACCCAUGUAAGGAUAUGCUGCGGUCGCGAUGACGUGACUGCAGCAGAAGGUACAAAUG [Mat - Mod of JL D58] (puzzle: Exclusion 1) | 69.7 | – | – | –
UAUUAGUUAGGAUAUACAUGAGGAUCACCCAUGUCACGGGUCCACUUGUCCUAUGCGUGUAGAAGGAGCGACCC [JL Ceriza mod 4] (puzzle: Exclusion 3) | 19.2 | – | – | –
AGAUUACUGCGAGGAUAUACAUGAGGAUCACCCAUGUGGUGGUGUGAGGCAAAGCCUCACACCAUGUAGAAGGCGCAGUAAUCA [Mat - Exclusion NG 2 - Mod of JL - D22] (Eterna round: R96, puzzle: Exclusion NG 2) | – | 150 | 44.5 | apparent KD of MS2 coat protein [4]: 23.3 nM
GAAGCACAUGAGGAUCACCCAUGUGAGGAUAUCCGUCUGGUCCGGCCGGGCCAGUACCGGAGAAGGCGCGUCGA [Excls1-Va] (puzzle: Exclusion 1) | 27.6 | – | – | –
